For 3 molecules, Kd results are on record in PMC5623693, “Rb‐independent E2F3 promotes cell proliferation and alters expression of genes involved in metabolism and inflammation” (FEBS Open Bio, 2017).

No end group written: not given here. *: point of attachment. 5‑TAMRA = CN(C)c1ccc2c(-c3ccc(C(=O)*)cc3C(=O)[O-])c3ccc(N(C)C)cc3[o+]c2c1

What all share (test): fluorescence polarisation; TAMRA-labeled peptide (100 nM stock, 1 uL in 10 uL final) with purified protein serially diluted 1:2; 20 mM HEPES, 100 mM KCl, 0.1% Tween-20, 5 mM DTT, pH 7.8; 20 min in the dark at room temperature; Kd by Michaelis-Menten equation, least-squares nonlinear regression
The target of assay [1] is Tamra-labeled E2F1 WT peptide (human).
In assay [2] the target is Tamra-labeled E2F1-mutant peptide (L415Q) (human).
The next assay concerns the target T1, GST-pRb (aa379-928) (UniProt P06400 379-928).
T1 construct: retinoblastoma protein pRb, residues 379-928
T1 sequence (looked up): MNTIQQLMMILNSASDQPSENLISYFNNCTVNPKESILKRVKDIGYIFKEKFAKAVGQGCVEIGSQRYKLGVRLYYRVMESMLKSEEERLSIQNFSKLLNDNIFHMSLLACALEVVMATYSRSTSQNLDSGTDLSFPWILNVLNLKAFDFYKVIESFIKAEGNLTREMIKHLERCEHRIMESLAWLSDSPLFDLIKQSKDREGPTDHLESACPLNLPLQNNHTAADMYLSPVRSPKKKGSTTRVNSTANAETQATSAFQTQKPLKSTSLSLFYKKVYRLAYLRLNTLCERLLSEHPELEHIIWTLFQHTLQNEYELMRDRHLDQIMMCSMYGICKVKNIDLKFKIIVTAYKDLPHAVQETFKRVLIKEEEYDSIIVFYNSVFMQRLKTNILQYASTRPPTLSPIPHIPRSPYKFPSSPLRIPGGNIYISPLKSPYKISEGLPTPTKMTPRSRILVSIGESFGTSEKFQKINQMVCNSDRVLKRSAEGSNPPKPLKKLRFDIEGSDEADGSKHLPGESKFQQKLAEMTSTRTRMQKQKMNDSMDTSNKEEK
Particulars: both partners purified.

Take “HIS-p107 (aa379-1104) (domain or fragment)”: the values for the Kd in assay [1] and in assay [2] were 7 µM and 200 µM, respectively.

B1: Tamra-labeled E2F1 WT peptide (peptide)
peptide: {5‑TAMRA}-EALDYHFGLEEGEGIRDLFDCDFG
notes: L415 is the ninth letter; also called WT E2F1 peptide; E2F1 C-terminal peptide; source: synthetic peptide (United BioSystems)
As to B1, the Kd with GST-pRb (aa379-928) was roughly 3 µM.

B2: Tamra-labeled E2F1-mutant peptide (L415Q) (peptide)
peptide: {5‑TAMRA}-EALDYHFGQEEGEGIRDLFDCDFG
notes: also called E2F1 L415Q peptide; LQ; source: synthetic peptide (Peptide 2.0)
On to B2, for which binding with GST-pRb (aa379-928) was put at a Kd of 20 µM.
